Values joined by “and” are separate entries in the source; they are usually repeats but may differ in a detail not shown here. Equal values may be shown once.
Columns and labels:
[1] = biological target: TAT-038 as carried by human tumor cell lines (H1299, PC-3, K562, HL-60) (human) (UniProt P15144); assay: flow cytometry, HL-60 human tumor cells
[2] = biological target: TAT-038 (full-length, cloned from human placenta cDNA, expressed from phCMV1-TAT-038 in stable 293G and BaF3 cells) (human) (UniProt P15144); assay: flow cytometry, BaF3 cells stably expressing TAT-038 (BAF3 ANPEP)
[3] = biological target: TAT-038 (full-length, cloned from human placenta cDNA, expressed from phCMV1-TAT-038 in stable 293G and BaF3 cells) (human) (UniProt P15144); assay: flow cytometry, 293G cells stably expressing TAT-038 (293G-ANPEP)
[4] = biological target: TAT-038 as carried by human tumor cell lines (H1299, PC-3, K562, HL-60) (human) (UniProt P15144); assay: flow cytometry, PC3 human tumor cells
[5] = biological target: TAT-038 as carried by human tumor cell lines (H1299, PC-3, K562, HL-60) (human) (UniProt P15144); assay: flow cytometry, K562 human tumor cells
[6] = biological target: TAT-038 as carried by human tumor cell lines (H1299, PC-3, K562, HL-60) (human) (UniProt P15144); assay: flow cytometry, H1299 human tumor cells
[7] = biological target: TAT-038 as carried by human tumor cell lines (H1299, PC-3, K562, HL-60) (human) (UniProt P15144); assay: flow cytometry, PC-3 human tumor cells

geometric mean fluorescence [1]: 23
geometric mean fluorescence [2]: 59.3
geometric mean fluorescence [3]: 221
geometric mean fluorescence [4]: 125
geometric mean fluorescence [5]: 7 and 9
geometric mean fluorescence [6]: 4
geometric mean fluorescence [7]: 47
Substance: Mouse monoclonal antibody WM15 (BD Pharmingen, cat#555393)

Reference: patent US20070192884A1
